Results: PMC2064744 (The Journal of Cell Biology, 2007)

T1: tandem L27 domain of rat CASK (L27NL27C_CASK, residues 329-460) (rat, UniProt Q62915 329-460)
T1 sequence: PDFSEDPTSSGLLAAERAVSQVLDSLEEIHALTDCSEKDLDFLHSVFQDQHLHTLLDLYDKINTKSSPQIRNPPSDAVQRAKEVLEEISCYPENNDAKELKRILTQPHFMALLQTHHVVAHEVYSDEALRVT

T2: tandem PALS L27 domains
T2 chain: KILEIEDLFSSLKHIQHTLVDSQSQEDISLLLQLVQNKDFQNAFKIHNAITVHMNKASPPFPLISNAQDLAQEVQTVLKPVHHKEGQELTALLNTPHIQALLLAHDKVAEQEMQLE


Assays:
[1] = molecular target: T1, tandem L27 domain of rat CASK …; test: SEC
tandem PALS L27 domains = molecular target: T2, tandem PALS L27 domains; test: SEC

Binder	stoichiometry N [1]	stoichiometry N (tandem PALS L27 domains)
L27 domain of mouse MALS (L27_MALS, residues 2-78) (domain or fragment) AALGEPVRLERDICRAIELLEKLQRSGEVPPQKLQALQRVLQSEFCNAVREVYEHVYETVDISSSPEVRANATAKAT	1	–
PATJ L27 (domain or fragment) MPENPAAEKMQVLQVLDRLRGKLQEKGDTTQNEKLSAFYETLKSPLFNQILTLQQSIKQLKGQLS	–	1
MALS L27 (in the MALS/PALS/PATJ L27 complex, unpublished data) (domain or fragment) AALVEPLGLERDVSRAVELLERLQRSGELPPQKLQALQRVLQSRFCSAIREVYEQLYDTLDITGSAEVRAHATAKAT	–	1
L27 domain of rat DLG (L27DLG, residues 1-65) (domain or fragment) MPVRKQDTQRALHLLEEYRSKLSQTEDRQLRSSIERVISIFQSNLFQALIDIQEFYEVTLLDNPK	1	–
